# Measured values reported in the nanobody polyreactivity screen of Harvey et al. (2022).
# Assay: yeast display, Sf9 membrane polyspecificity reagent, FACS + sequencing; frameworks hold sequencing errors
# Outline: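 Polyreactivity labels are assigned by the sorting gate from which each nanobody was recovered. The gates were low and high (top ~1%), set on anti-HA fluorescence for expression and streptavidin fluorescence for reagent binding. Before sorting, galactose-induced (36–48 hours) yeast display cells were stained for 1 hour at 4 °C with 10% biotinylated, detergent-solubilized Sf9 membrane reagent.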
row,Sequence,polyreactivity (PSR sort gate)
1,QVQLVESGGGLVQAGGSLRLSCAASGSIFYYYSMGWYRQAPGKERELVAAMSTGGGSTYYADSVKGRFTISRDNAKNTVYLQMNSLKPEDTSVYYCAAPWGYYSSFTDDYWGQGTQVTVSS,low polyreactivity
2,QVQLVESGGGLVQAGGSLRLSCAASGSTFGLNALGWYRQAPGKERELVAAISTSGGSTYYADSVKGRFTISRDNAKNTVFLQMNSLNPEDTAVYYCAADVVAGYDYSQYYYWGQGTQVTVSS,low polyreactivity
3,QVQHVESGGGLVQAGGSLRLSCAASGITFGRNTMGWYRQAPGKERELVAAIDSGGNTYADSVKGRFTISRDNAKITVYLQMIRQKPEDTAVDSCAVDGGEFSSYGYWGQGTQVTVSS,low polyreactivity
4,QVQLVESGGGLVQAGGSLRLSCAASGSNLDYNAMGWSRQAPGKERELVAAISTGGRTNYADSVKGRFTISRDNAKNTVYLQMNSLKPDDTAVYYCAADTTTEITDTDYDYWGQGTQVTVSS,low polyreactivity
5,QVPLVDSGGGLVQAGGSVRLSCAASGSIFYVYALGWYRQAPGTERELVAAINPSGGSTYADSVKGRFTISRDNAKISVYLQMYSLKTEDNAVSYCAAEPEWWWRGYGYWGQGKQVTVSS,low polyreactivity
6,QVQLVESGGGLVQAGGSLRLSCAASGRTLSGNAMGWYRPAPGKERELVATITSDGGDTYYADSVKGRFTISRDNPKNTVYLQMNILKPEDTAVYYCNADYAGPKYVGYTFRSFTMDYWGQGTQVTVSS,low polyreactivity
7,QVQLVESGGGLVQAGGSLRLSCAASGGTLRYYVMGWYRQAPGKDRELVAAISWAGDSTYYADSVKGRFTISRDNAKNTVYLQMNSLKPEDTAVYYCAATYYLTYYSGQANHGYDYWGQGTQVTVSS,low polyreactivity
8,QVQLVESGGGLVQAGGSLRLSCAASGFIFRHYAMGWYRQAPGKERELVAGINTSGGSTHYADSVKGRFTISRDNAKNTVYLQMNSLKPEDTAVYYCAADVYRYYAGSRYYYWGQGSQVTVSS,low polyreactivity
9,QVQLVESGGGLVQAGGSLRLSCAASGITFADNSMGWYRQAPGKERELVAAISRGGSTYYADSVKGRFTISRDNAKNTVYLQMNSLKPEDTAVYYCAAAGWWRAWGSYLRFYGYDYWGQGTQVTVSS,low polyreactivity
10,QVQLVESGGGLVQAGGSLRLSCAASGLTLTYYAMGWYRQAPGKERELVAAISRSGGSTHYADSVKGRFTISRDNAKNTVYLQMNSLKPEDTAVYYCNAQQGRYWSAKGYDYWGQGTQVTVSS,high polyreactivity
11,QVQLVESGGGLVQAGGSLRLSCAASGRTFEYNAMGWYRQAPGKEREFVAAITYSGGGTYYADSVKGRFTISRDNAKNTVYLQMNSLKPEDTAVYYCARERTRVHKHYYWGQGTQVTVSS,low polyreactivity
12,QVQLVESGGGLVQAGGSLRLSCAASGIILPYYAMGWYRQAPGKEREFVATISSDGTSTYYADSVKGRFTISRDNAKNTVYLQMNSLKPEDTAVYDCAARIRQNPGGDNSWGQGTQVTVSS,low polyreactivity
13,QVQLVESGGGLVQAGGSLRLSCAASGRTFGIYAMGWYRQAPGKERELVAAITGRGGSTHYADSVKGRFTISRDNAKNTVYLQMNSLKPEDTAVYYCNARWWVIRPYQRHDYWGQGTQVTVSS,low polyreactivity
14,QVQLVESGGGLVQAGGSLRLSCAASGSIFGYNVMGWYRQAPGKERELVAAITYSGGSTYYADSVKGRFTISRDNAKNTVYLQMNSQKQEDTAVYYCAKVTGRRFPAYGYDHWGQGTQVTVSS,high polyreactivity
15,QLQLVESGGGLVQAGGSLRLSCAGSGGTFRVYAMGWYRQATGKERALVAAITGRGGSTYYADSVKGRFTISRDTAKNTVYLQMNSLKAEDTAVYYCAAVSFSDGSPYNYWGLGTQVTVSS,low polyreactivity
16,QVQLVESGGGLVQAGGSLRLSCAASGSILSPYAMGWYRQAPGKERELVAAISRSGDRTYYADSVKGRFTISRDNAKNTVYLQMNSLKPEDTAVYYCAAEYSWPWDYYYWGQGTQVTVSS,high polyreactivity

row,Sequence,polyreactivity (PSR sort gate)
1,QVQLVESGGGLVQAGGSLRLSCAASGSIFWWNAMGWYRQAPGKERELVGAITVSGSSTHYADSVKGRFTISRDNAKNTVYLQMNSMKPEDTAVYYWGQGTQVTVSS,low polyreactivity
2,QVQLEESGAGLVQAGGSLRLSCAASGRTFYRYAMGWYIQAPGKERELVAAITSGDRTYYADSVKGRFTISRDNALNTVYLQMNSLKPEYTAVYYCAARRDYWARYYYWGQGTQVTVSS,high polyreactivity
3,QVQLVESGGGLVQAGGSLRLSCAASGSIFSQYAMGWYRQAPGKEREFVAAINWSGGRTRYADSVKGRFTISRDNAKNTVYLEMKSLKPEDTAVYYCNARGYSGVSGKYGYWGQGTQVTVSS,high polyreactivity
4,QVQLVESGGGLVQAGGSLRLSCAASGSTFVGNAMGWYRQAPVKERELVATISNSGGHTFYADSVKGRFTISRDNAKNTVYLQMNSLKPEDTAVYYCAASTSGAIRRDGYWGQGTQVTVSS,low polyreactivity
5,QVQLVESGGGLVQARGSLRLSCASSGITLYFNTMGCYRQPPGKESELVASISGGSSTYYADSVKGRFTISRDNAKNTVYLQMNSLKPEDTAVYYCNAQGSLFRGWFDYDYWGLGTQVTVSS,low polyreactivity
6,QVQLVESGGGLVQAGGSLRLSCAASVITFGYYAMGWYRQAPGKERELVAAISRRGGNTYYADSVKGRFTISRDIAKNTVYLQMNSLKPEDTAVSYCATRALYWRYGYDYWGQGTQVTVSS,high polyreactivity
7,QVQLVESGGGLVQAGGSLRLSCAASGRIFRVNTMGWYRQAPGKERELVAAISTSGGTTYYADSVKGRFTISRDNAKNTVYIQLNSLKPEDTAVYYCNASYLTRRDGYIEDAIYDYWGQGTQVTVSS,low polyreactivity
8,QVHLVETGGGLLQAGGSLRLSFAASGFTFWRYAMGWSRQAPGKESELVAAISRTGGRTYYADSLKGRFTISRDHAKNTVYLQMNSLNPEDTAVYYCNAPRGYSSTRNGYWGQGTQVTVSS,high polyreactivity
9,QVQLVESVGGLVQAGGSLRLSCAASGFTFGPYDMGWYRQAPGKERELVAVIIGGDSTNYADSVKGRFTISRDNAKNTVYLQMNSLKPEDTAVYYCAADYIDRVGWMDYWGQGTQVTVSS,low polyreactivity
10,QVQLVESGGGLVQAGGSLRLSCAASGRAFYGNAMGWYRPAPGKERELVASISQRGGSTYYADSVKGRFTISRDTAKNTVYLQMNSLKPEDTAVYYCAARRKGYSTGLGHRISYDYWGQGTQVTVSS,high polyreactivity
11,QVQLVESGGGLVQAGGSLRLSCAASGFTFRRYAMGWYRQAPGKERVLVAAISRGGSSTYYADSVKGRFTISRDNAKNTVYLQMNSLKPEDTAVYYCNARTYVALGFNYWGQGTQVTVSS,high polyreactivity
12,QVQLVESGGGLVQAGGSLRLSCAASGSILSFNAMGWDRQAPGNERELVAAISRGGSTNYADSVKGRFTISRDNAKNTVYLQMNSLKPEDTAVYYCAAVQYRYSTRWARRAYDYWGQGTQVTVSS,high polyreactivity
13,QVQLVESGGGLVQAGGSLRLSCAASGGTFHRNAMGWYRQAPGKERELVAAITSSGGSTNYADSVKGRFTISRDNAKYTVYLQMNSLKPEETAVYYCATDRYRYTSHPWSRGFDYLGQGTQVTVSS,low polyreactivity
14,QVQLVESGGGLVQAGGSLRLSCAASGSIFRGYALGWYRQAPGKERALVAAITKRGGNTYYADSVKGRFTISRDHAKNTVYLQMNSLKPEDTAVYYCAKAGWGKWVYAQMVYWGQGTQVTVSS,high polyreactivity
15,QVQLVESGGGLVQAGGSLRLSCAASGRIFYRYAMGWYRQAPGKERELVAAISSGGSTYYADSVKGRFTISRDNAKNTVYLQMNSLKPEDTAVYYCAATWGRGTYYLYYYWGQGTQVTVSS,high polyreactivity
